The values that follow come from the DeepSol protein solubility set.

The nature of this series: soluble on expression in E. coli; label from the status in PepcDB or PDB records.
Take “MFRRKLTALDYHNPAGFNCKDETEFRNFIVWLEDQKIRHYKIEDRGNLRNIHSSDWPKFFEKYLRDVNCPFKIQDRQEAIDWLLGLAVRLEYGDNAEKYKDLVPDNSKTADNATKNAEPLINLDVNNPDFKAGVMALANLLQIQRHDDYLVMLKAIRILVQERLTQDAVAKANQTKEGLPVALDKHILGFDTGDAVLNEAAQILRLLHIEELRELQTKINEAIVAVQAIIADPKTDHRLGKVGRLEHHHHHH”: the “soluble on expression in E. coli” value is “soluble”. The result for “ATMPLSPLLTAVIETTLNTLINDDPALGRKLLRLKGKVISLHLRELNQSLTFVFSQRIDVMTGFEGQPDCYLALNLSILPQLREQANITQLIKQDKLELEGDIQLAQKFSELMTDCKPDVEEWLSRITGDVVAHSVVHGVKSIVGALKQQAHKHQNHLAQVLTEEWRIAPPPLEIAYFCDQVDDVKSHAARLEARLNQLLEKA” reads “not soluble”; that for “PELADPTPYDIFGIPKAGSGNPKLDKKSLKKKYHRYVKLYHPDHSDNIQIFSSEKVTNSDSKSPLLLTSSEKLHRFKVISQAYDILCDPKKKIVYDTTRQGW”, “not soluble”; that for “MGSDKIHHHHHHENLYFQGMTQFKLIGFDLDGTLVNSLPDLALSINSALKDVNLPQASENLVMTWIGNGADVLSQRAVDWACKQAEKELTEDEFKYFKRQFGFYYGENLCNISRLYPNVKETLEALKAQGYILAVVTNKPTKHVQPILTAFGIDHLFSEMLGGQSLPEIKPHPAPFYYLCGKFGLYPKQILFVGDSQNDIFAAHSAGCAVVGLTYGYNYNIPIAQSKPDWIFDDFADILKITQ”, “soluble”.

In the case of “MSEEKYNYLDMHLSRKGSIYDSLIHLKPDNENKFGLDENSDICRTLSNYADYSTKKVKYFVNKRFSEIENIEKNIEDIDYSAFKYFRTLPPKYSDENDIRNNIIFNNNNIYIYAENKNGTLNEQACISISPDNNIIYCSTKGRRYTIGGHAGIQKNLNNEYNFLDENNFISPQNSIKTYTYDALDSSDLSSSFPKMNLIKTNDVLDDTNTNRINTANIFNEHIIMNSCESSNLNTTKCLSKNLSVQKLFKYYKKCSQDLEHEQRICKPCAHVYNGSTCMNGDECSFCHHPDHVLISAKKWKKLVKNNMEKLNILLHILRNPDDVNANFLNEMIKQNTKNFKKNKKINNIKNNTIINMYNQNIRHSNSNNNTINDMNNNNINKRHNKNRIFYFPQRNTDNILRPPYNNYESNETTDMYKNNYQVRNCNFSPYHMNM”, the “soluble on expression in E. coli” value is “not soluble”. Next, “MYQYDEYDQALVSERVAQFRDQIARRLDGELSEEEFLPLRLQNGLYLQKHAYMLRVAIPYGTLSAPQLRALAHVARHYDRGYGHFTTRQNIQFNWIELEQVGDILEHLAGAQMHAIQTSGNCVRNITTEAFAGVAADEWTDPRPLAEILRQWSTVNPEFLFLPRKFKIALSSAVEDRAAVQMHDIGLYLYRHPDAGELRLRVLVGGGLGRTPMLGQVIRDDLPWQHLLSYVEAILRVYNRYGRRDNKYKARIKILVKALGIEAFAREVEEEWQHLRDGPAQLTAEECQRVAERFVLPRYLPPADGELAYGSARAADPAFARWASRNVQAHKVPGYASVVLSTKPGASAPPGDVTAEQMERVADWAERYGFGEIRVAHEQNLVLPDVRLENLHALWREACAAGLGTPNQGLLSDIIACPGGDYCALANAKSIPIAQGIQQRFEDLDHLHDIGELSLNISGCMNACGHHHIGNIGILGVDKSGSEWYQVTLGGAQGKDSALGKVIGPSFSAAEVPAVIERIVETFTDLRVGPERFIDTFNRVGLEPFKARVYARMEEPA”: “not soluble”. Next, “GNKIPTTMAFRTVTDVDNAVNGLYDLMSGSGYYGAAMFAYGDMKGDDMQSSEESGVCNTCYMFNHRPNSLNAGSLWGRPFYILREAWNILNAIAEGKIESGDEKKLNALKGETMAVIALCQFDLTRCFGYPYTKDKGASLGAPLIDHLVGTYENPPRSTVAQAYDFIIETLEEAVTLMSEEKNNGRMNKYAARALLARIYLYHDDNRKAFDLADQLIKDADTSGSYALYPHEKYVAAWSVEAKFGSESFFEIANSVDDTPGRDSWGYLLNWYGYQKGFVTQKYAEQMLADPGDVRGHLLEENKYAGKTVWWLYKLRGTDLKTAPLECNNVVLRLSEVYLIAAEAGCKLGGDAAVQGLGYLNEIVKRGNPDNEVTMADYTLDRVLDERSKELVGEGHRFFDLLRNGKTIVRKGGYHLPSVDEEVDWDFYKCVLPIPEDQFIFSPEMEQNPGYPKN”: “soluble”. Next, “MGSDKIHHHHHHDEEPKSTLTDVAYYKTQSQMESNVNYLYRTGAIGSYVDFGSAYIGPFASIQEELTGYFSNSYEGQEIVCRYTRELTRQQNTMQLASKMDKVWDDCYRGINVANGAIKHMPEVPMDQATADRLTAEAKFFRAFNYFYLVKTFGAVPFYTDPYELAENMELPRTETSTIYNQIESDLKDAMNVLPEATFAANGHRITKYVAAMTLTDVYMYQHKYAEAAETVRIVVNSNHKLTTNDDLAMNSAFNKLRSTDDLDEAIYAYEYDNQISPSNWLPTYAFDGDASSNGLFGTYAITQKVHGPNDRYLNIYESNDLRRQPNQFYHWTYTNPKTGKVWNSVGNAACCWYYYDEDALLTTGRGTKDWNVYRYAEALLDAAESIAQSTGVTAEAAGYLAQVKARANMEGKTAAEIASSLQSMGKQAFIEECWTERLRELPLEFKMWDMCVRTGMFPNISETTPGQVTYIPLVGAKNASGATIKESDLLWPLSVNEIQRNPSLTQNEGYSAK”: “not soluble”; “GPGSMQEEAISSAATGVGHVMVTFFTDSYAKAMPEESYAVPLNVLPEGLNVLVQSVLSVNDQVFDFLYNGEYITTTLQKFLSRRGVSTEELVNVEYTPALQAKESSHLPHDDWVSSVRVPFVGHSELLLTGSYDRCIRLWDADDCVAIGAHHDECVKEVVVHPMKPRSTATNTTRDSVKKRARSSLLEDFYCVSCSKDGRAAAWVFNATASKFQLLSSVKAHTDAIESIDISPGAGKYVATASWDCTVKVFEWSQVVDGATEPSAKEPLVSFTDHTRPALSCRFSAAKGAALLYSSGLDGTLKCMDVETAVLQKQYIGDHPVQGLAVRTVGGGGGGDLIIAACTDNRARLYDTRVGESTGSVKVFSGHKQWLYAASWLWRPDEGEVNGGNFFATASEDSTVRLWDLRCGTNALLTLDTSHTDGVLDVTYSGNGEIVSCGKDNSTKSFQCFKGDSLLN”: “not soluble”. In the case of “AHHHHHHGSISETIRSGDWKGEKHVPVIEYEREGELVKVKVQVGKEIPHPNTTEHHIRYIELYFLPEGENFVYQVGRVEFTAHGESVNGPNTSDVYTEPIAYFVLKTKKKGKLYALSYCNIHGLWENEVTLE”, the “soluble on expression in E. coli” value is “soluble”. Consider “IGAWGYNVGFNLYDSKTVVTKYHNESKIILKSDGTNNYYEGYEIGSIWGYVTDGYYTADDFEDTNTWKLKEGVVTVDGVSPRPGDIKYQNLRDDGSSTNRIDTGDGTFDNPGDRKIIGNNSLRLQYGINLGVNYKGFDLSVLLQGVGKRDVWISDARRWPFNSGQFGSLFKDQLDYWKPVDSANGDWTAANPNAEYFRIYGQGNNSSYNTRAQTKYLMNGSYLRVKNVTLSYNFPKSWLAPITLTSLKAFVSCENLHTFTKLMKGYDPERLSWGYPFYRTISFGFNVTL”, for which the “soluble on expression in E. coli” value is reported as “not soluble”.

On to “MPTVRLADGDLNYSLEGPAGAPVLLLSNSLGTDLGMWDTQIPALTAHFRVLRYDTRGHGASLVTPGPYAIGQLGADVLALLDALELPRVHFCGLSMGGLIGQWLGIHAGERLGRLVLCNTAAKIASDEVWNTRIDTVLKGGEQAMRDLRDASVARWFTAGFAEREPAQVERIVAMLAATSPQGYAANCAAVRDADFREQLGLVQAPTLIVAGSHDAVTTPDNARFMQARIADAQLVEFAAAHLSNVEAGDAFSRRLVDFLL”, for which the “soluble on expression in E. coli” value is recorded as “not soluble”.

In the case of “KRELTVLDLHPGAGKTRRVLPQLVREAVKKRLRTVILAPTRVVASEMYEALRGEPIRYMTPAVQSERTGNEIVDFMCHSTFTMKLLQGVRVPNYNLYIMDEAHFLDPASVAARGYIETRVSMGDAGAIFMTATPPGTTEAFPPSNSPIIDEETRIPDKAWNSGYEWITEFDGRTVWFVHSIKQGAEIGTCLQKAGKKVLYLNRKTFESEYPKCKSEKWDFVITTDISEMGANFKADRVIDPRKTIKPILLDGRVSMQGPIAITPASAAQRRGRIGRNPEKLGDIYAYSGNVSSDNEGHVSWTEARMLLDNVHVQGGVVAQLYTPEREKTEAYEGEFKLKTNQRKVFSELIRTGDLPVWLAFQVASANVEYHDRKWCFDGPNEHLLLENNQEIEVWTRQGQRRVLKPRWLDGRITSDHLNLKSFKEFASGKR”, the “soluble on expression in E. coli” value is reported as “soluble”. As for “PADFNGTWEMLSNDNFEDVMKALDIDFATRKIAVHLKQTKVIVQNGDKFETKTLSTFRNYEVNFVIGEEFDEQTKGLDNRTVKTLVKWDGDKLVCVQKGEKENRGWKQWIEGDLLHLEIHCQDKVCHQVFKKKN”, the “soluble on expression in E. coli” value is on record as “soluble”.

As for “MRIIKFPEQISEDIIHYTFLDDIISYNCEKCRGSCCHVNNSLLLDAKTASFLKRTYLKDFIVSDDSVSLLSCGKKCWFHSELGCTINDLGLNKPLTCELYPFHIKKIQNFYIVSFTPCPTFQLNLGEGQRYKDIEDVVLRYIKTGVPVFSPSLHVSEERLKYEIEYQNNFKNTLSEYYRTKTADGTTEFKEYEKWYIYYLDFRWGSIPLSYTSSQANQFWNLYKRVCEDVYKKISYIRTDNIYFIIANQFNKTISKHFQLNFIDKE”, the “soluble on expression in E. coli” value is “soluble”. Next, “MNIENPAPILDQDPYVQAYPETRAFWEAAAQGRFVLPRCRDCGQSHWYPRGLCPLCGSTALEWQDAAGTGTLYSYSVMRAAPQPYAIAYVQLAEGPLVLTNIVDSDLERLRIGQPVRVAFQRTQEGRSAPVFVALAD”: “not soluble”. Next, “VEPSEENSKDCVVCQNGTVNWVLLPCRHTCLCDGCVKYFQQCPMCRQFVQESFAL”: “soluble”. The result for “STSCVAEEPIKKIAIFGGTHGNELTGVFLVTHWLKNGAEVHRAGLEVKPFITNPRAVEKCTRYIDCDLNRVFDLENLSKEMSEDLPYEVRRAQEINHLFGPKNSDDAYDVVFDLHNTTSNMGCTLILGDSGNDFLIQMFHYIKTCMAPLPCSVYLIEHPSLKYATTRSIAKYPVGIEVGPQPHGVLRADILDQMRRMLKHALDFIQRFNEGKEFPPCAIDVYKIMEKVDYPRNESGDVAAVIHPNLQDQDWKPLHPGDPVFVSLDGKVIPLGGDCTVYPVFVNEAAYYEKKEAFAKTTKLTLNAKSIRSTLH” reads “soluble”; that for “AHHHHHHGSGNNTEVIKMVEVRLENLTKKFGDFTAVNSLNLTIKDGEFLVLLGPSGCGKTTTLRMIAGLEEPTSGKIYFGDRDVTYLPPKDRNVSMVFQSYAVWPHMTVYENIAFPLKIKKYPKDEIERRVKWAAELLQIEELLDRYPAQLSGGQRQRVAVARAIVVEPDVLLMDEPLSNLDAKLRVAMRAEIKKLQQKLKVTTIYVTHDQVEAMTMGDRIAVMNRGKLLQVGSPTEVYLNPNSVFVATFIGAPEMNILEVSVGEGYLEGEGFKIELPDDIMEALRNYIGKTVLFGIRPEHMVIEGISELAHMRRTAKIKGVVDFVEALGTDTIVHVRFEESIIKVKLPGHIPLEIGKEVSVLIDLDKIHIFDKNSEKAII”, “soluble”. Regarding “QVPPSFFQRIYRYHREHGGRFGTVHDVGAGIGPYAGELRSQFPHVIVSDIVPKNVQLAEAHLGRDGFRYRAAPVEVADDLPPGSVDLAFATNVMHFADQHAAMQAIATQLRPGGTFACAGFGPARFDDPDIQDVWERISQQGGRILLGMAEHPPDTINVMSRSSKEYNVAPLEPQWFRPGALRIRLNMAQGGITGLLPPERQQEVTDPDFAGPRDVVVYETNEEWRFETDWEGFLQHFRSFPHAGADPAAFTGLLQELKDLLDEGRCLRGCWPATLILATR”, the “soluble on expression in E. coli” value was “not soluble”.
